Test results: US10093706, “Dominant positive hnRNP-E1 polypeptide compositions and methods” (Indiana University Research and Technology Corporation)

Legend:
[1] = biological target: hnRNP-E1 (PCBP1) wild-type (Homo sapiens, UniProt Q15365 SEQ:1-356); assay: EMSA; 15 uM L-homocysteine; complete quenching of signal; conditions: tags: GST fusion (pGEX-4T-1, E. coli BL21)
hnRNP-E1(C293S) = hnRNP-E1(C293S) (Homo sapiens, UniProt Q15365 SEQ:1-356); assay: no L-homocysteine; Scatchard; conditions: tags: GST fusion (pGEX-4T-1, E. coli BL21); label: 35S
Method: (§1) Specific binding was determined by subtracting values of non-specific binding with GST from those of total binding with GST-hnRNP-E1; (however, in Table 1 and FIG. 6G, non-specific binding using bovine serum albumin (BSA) was subtracted from total binding to GST-hnRNP-E1 to determine specific binding). The K_D was calculated from a Scatchard plot using GraphPad Prism 6 from GraphPad Software (San Diego, Calif.), as previously described in the art.

hnRNP-E1(G292A) = hnRNP-E1(G292A) (Homo sapiens, UniProt Q15365 SEQ:1-356, G292A); assay: no L-homocysteine; Scatchard; no gel-shift signal in this condition (FIG. 1B); conditions: tags: GST fusion (pGEX-4T-1, E. coli BL21); label: 35S
Method: as §1

Chain of hnRNP-E1(G292A) (Q15365 whole entry A205V/G292A, the tested form may be a part): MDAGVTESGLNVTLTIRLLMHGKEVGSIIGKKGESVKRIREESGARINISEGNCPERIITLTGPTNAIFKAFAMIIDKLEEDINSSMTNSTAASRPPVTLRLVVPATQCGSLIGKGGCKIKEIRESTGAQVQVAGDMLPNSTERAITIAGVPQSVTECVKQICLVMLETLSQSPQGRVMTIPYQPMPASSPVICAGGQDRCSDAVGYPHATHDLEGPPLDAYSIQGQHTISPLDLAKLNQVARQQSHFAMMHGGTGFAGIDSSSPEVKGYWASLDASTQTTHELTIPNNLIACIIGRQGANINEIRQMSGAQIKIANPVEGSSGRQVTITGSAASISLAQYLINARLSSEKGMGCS
Chain of hnRNP-E1(C293S) (Q15365 whole entry A205V/C293S, the tested form may be a part): as the sequence (Q15365 whole entry A205V/G292A, the tested form may be a part) above, with A292G, C293S counted along it
Chain of hnRNP-E1 (PCBP1) wild-type (Q15365 whole entry A205V, the tested form may be a part): as the sequence (Q15365 whole entry A205V/G292A, the tested form may be a part) above, with A292G counted along it

Binder	binding result [1]	Kd (hnRNP-E1(C293S)) [nM]	Kd (hnRNP-E1(G292A)) [nM]
CUUCCGCCCGCUCCCGCUCGCUUCC (ssRNA) [25-nt cis-element mutation 6]	no binding	–	–
CUCCCGCCCGCUCCCGCUCGCUCCC (ssRNA) [25-nt hnRNP-E1 mRNA 5'-UTR cis-element]	–	0.39	2.02
